Measured values as given in patent US20250361305A1 (ORIONIS BIOSCIENCES, published 2025).
Changes are numbered by the printed parent chain.

B1: 2PD-16 (VHH)
VHH: QVQLQESGGGLVQAGGSLRLSCAASGGFNRVSYMGWYRQAPGTKRELVASVTSGGEITIADSVKGRFTVSRDNSKNTLYLQMNGLKPEDGATYWCNADIWVSDARMYNYWGQGTQVTVSS
notes: PD-1 VHH
B2: 2PD71 (VHH)
VHH: B1 VHH with A14T, G16E, T43S, I59V, S74N
notes: PD-1 VHH
B3: 2PD-12 (VHH)
VHH: QVQLQESGGGLVQAGGSLRLSCAVSGFILDYYGIGWFRQAPGKEREAVSCISSSDGSTYYADSVKGRFTISRDNALNTLYLQMNSLKPEDTAVYHCATATLCDGGIWGYWGQGTQVTVSS
notes: PD-1 VHH
B4: 3PD55 (VHH)
VHH: B3 VHH with V12A, A23E, V24G, F27L, I28S, Y32D, I34V, D73G, H95Y
notes: PD-1 VHH
B5: 3PD82 (VHH)
VHH: B3 VHH with L11S, A14P, H95Y
notes: PD-1 VHH
B6: 2PD23 (VHH)
VHH: QVQLQESGGGLVQPGGSLRLSCAASGFSMDYYAIAWFRQAPGKEREEISCITGSDFMVDTYYVASVKGRFTISRDNAENTAYLQMNNLKPEDTGVYFCAVRSTANTLCPSHYSVMDYWGKGTQVTVSS
notes: PD-1 VHH
B7: 2PD-106 (VHH)
VHH: B6 VHH with A23S, E78K, Y82H, N87S
notes: PD-1 VHH
B8: 2PD26 (VHH)
VHH: B6 VHH with P14A
notes: PD-1 VHH
B9: 2PD90 (VHH)
VHH: B6 VHH with A23S, M29V, E78K, N87S, V114I
notes: PD-1 VHH
B10: 2PD-152 (VHH)
VHH: QVQLQESGGGLVQTGESLRLSCAASGIIKSINFMGWYRQPPGTKRELVASTTSDGRTTVADSVKGRFTISRDNAKNTIYLEMSSLKPEDTATYWCNADIWLPSDRMYNYWGQGTQVTVSS
notes: PD-1 VHH
B11: 2LIG176 (VHH)
VHH: QVQLQESGGGLVQAGGSLRLSCAASESIFSIEAMGWYRQAPGKQRELVAAIFGGGFTNYADSVKGRFTISRDNANRTVYLQMNSLKPEDTAVYYCNADLVSGSSRLYDYWGQGTQVTVSS
notes: PD-L1 VHH
B12: 2LIG48 (VHH)
VHH: QVQLQESGGGLVQPGGSLRLSCAASGFTFNDYAMSWVRQAPGKGLEWVSGIRSNGGYTNYADSVKGRFTISRDNAKNTLYLQMNSLKSEDTAVYYCAQGYYCSGYGCYPGQGTQVTVSS
notes: PD-L1 VHH
B13: 3LIG30 (VHH)
VHH: B12 VHH with L11T, P14A
notes: PD-L1 VHH
B14: 2LIG16 (VHH)
VHH: B12 VHH with N30D, A33G, G50A, S53W, Y57S, Y108P, P109R
notes: PD-L1 VHH
B15: 2LIG22 (VHH)
VHH: QVQLQESGGGLVQPGGSLRLSCAASGFTLDYYAINWFRQAPGKEREEVSCISSSDGSTYYADSVKGRFTISRDNAKNTVYLQMNSLKPEDTAVYYCATSGWRLCRPTDEYDYSYWGQGTQVTVSS
notes: PD-L1 VHH
B16: 3LIG28 (VHH)
VHH: B15 VHH with S113L
notes: PD-L1 VHH
B17: 2LIG30 (VHH)
VHH: QVQLQESGGGLVQPGGSLRLSCAASGKIFSGNDMGWYRQAPGKQRELVGIITSGGITDYADAVKGRFTISRDNAKNMMYLQMNSLKPEDTAVYYCNMRDRTIWWGQGTQVTVSS
notes: PD-L1 VHH
B18: 2LIG189 (VHH)
VHH: B17 VHH with P14A
notes: PD-L1 VHH
B19: 2LIG27 (VHH)
VHH: QVQLQESGGGVVQAGGSLRLSCTASGTIFSINRMDWFRQAPGKQRELVALITSDGTPTYADSAKGRFTISRDNTKKTVSLQMNSLKPEDTAVYYCHVSSGVYNYWGQGTQVTVSS
notes: PD-L1 VHH
B20: 2LIG97 (VHH)
VHH: B19 VHH with V11L, G16E
notes: PD-L1 VHH
B21: 2LIG34 (VHH)
VHH: B19 VHH with V11S
notes: PD-L1 VHH
B22: 3LIG8 (VHH)
VHH: B19 VHH with V11L, A14P
notes: PD-L1 VHH
B23: 2LIG3 (VHH)
VHH: B19 VHH with V11L, R33H, T56F
notes: PD-L1 VHH
B24: 2LIG99 (VHH)
VHH: B19 VHH with V11L, T58A
notes: PD-L1 VHH
B25: 3LIG18 (VHH)
VHH: QVQLQESGGGLVQPGGSLRLSCAASGFNLDPYAIAWFRQAPGKEREEVSCISSSDVGTYYADSVKGRFTISRDNAKKTVYLQMNSLKPEDTAVYYCATDGYYYCSDYPHPLYWGQGTQVTVSS
notes: PD-L1 VHH
B26: 2LIG89 (VHH)
VHH: B25 VHH with A75T
notes: PD-L1 VHH
B27: 2LIG65 (VHH)
VHH: B25 VHH with P14A
notes: PD-L1 VHH
B28: 2LIG139 (VHH)
VHH: B25 VHH with A24V
notes: PD-L1 VHH
B29: 2LIG127 (VHH)
VHH: B25 VHH with A35G, S54G, V56G, G57S, T58K, I70M
notes: PD-L1 VHH
B30: 2LIG85 (VHH)
VHH: QVQLQESGGGLVQPGGSLRLSCAASGFTFTAYAMSWFRQAPGKEREEVSCINSSDGSTYYADSVKGRFTISRDNAKNTVYLQMNSLKPEDTAVYHCATDGWRDCTWSNEYAYWGQGTQVTVSS
notes: PD-L1 VHH
B31: 2LIG86 (VHH)
VHH: QVQLQESGGGLVQPGGSLRLSCAASGFTFDYYAIGWFRQAPGKEREEVSCISGSDSSTYYADSVKGRFTIVRDNAQNTVYLQMNSLKPEDTAIYYCAVTGWRTCRGLNEYDYWGQGTQVTVSS
notes: PD-L1 VHH
B32: 2LIG2 (VHH)
VHH: QVQLQESGGGLVQAGGSLRLSCAASGFTLDYYAIGWFRQAPGKEREEVSCISSSDGSTYYADSVKGRFTISRDNAKNTVNLQMNSLKPEDTAVYYCATDGWSSCRHGINEYLYWGQGTQVTVSS
notes: PD-L1 VHH
B33: 3LIG3 (VHH)
VHH: B32 VHH with A14P
notes: PD-L1 VHH
B34: 3LIG33 (VHH)
VHH: B32 VHH with A14P, G16T
notes: PD-L1 VHH
B35: 3LIG7 (VHH)
VHH: QVQLQESGGGLVQAGGSLRLSCAASGFTFSSYGMSWVRQTPGKGPEWVSAIDSGGGSTSYADSVKGRFTISRDNAKNTLYLQMNSLKPEDTAVYYCAQGYYCSGYGCSDYWGQGTQVTVSS
notes: PD-L1 VHH
B36: 3LIG9 (VHH)
VHH: B35 VHH with A14P
notes: PD-L1 VHH
B37: 2LIG35 (VHH)
VHH: B35 VHH with A14P, I70T
notes: PD-L1 VHH
B38: 3LIG29 (VHH)
VHH: B35 VHH with L18M
notes: PD-L1 VHH
B39: 2LIG109 (VHH)
VHH: B35 VHH with A14S, A23K, A24T
notes: PD-L1 VHH
B40: 2LIG29 (VHH)
VHH: B35 VHH with A14T
notes: PD-L1 VHH

Biological target: T1, PD-1 antigen (ELISA of Example 2) (human, UniProt Q15116 25-167, limits assumed)
Assay: ELISA, signal on PD-1 antigen; also: test concentration or dose not given here

T1 sequence (Q15116 25-167 limits assumed): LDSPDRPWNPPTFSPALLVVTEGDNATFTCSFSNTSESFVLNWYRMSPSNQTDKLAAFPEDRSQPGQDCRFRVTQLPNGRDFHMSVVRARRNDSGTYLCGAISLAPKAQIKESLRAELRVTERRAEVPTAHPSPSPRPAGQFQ

ELISA A | Binder
1.83 | B1
2.51 | B2
3.81 | B3
3.58 | B4
4 | B5
0.94 | B6
1.46 | B7
0.718 | B8
1.34 | B9
2.31 | B10

Biological target: T2, PD-L1 antigen (ELISA of Example 2) (human, UniProt Q9NZQ7 19-239, limits assumed)
Assay: ELISA, signal on PD-L1 antigen over control

T2 sequence (Q9NZQ7 19-239 limits assumed): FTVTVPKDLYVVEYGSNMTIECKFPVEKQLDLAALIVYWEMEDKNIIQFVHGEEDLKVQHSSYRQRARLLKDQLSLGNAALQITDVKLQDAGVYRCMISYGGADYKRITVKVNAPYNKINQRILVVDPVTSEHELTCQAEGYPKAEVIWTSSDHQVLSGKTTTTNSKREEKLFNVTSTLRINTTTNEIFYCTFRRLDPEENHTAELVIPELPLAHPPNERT

A/control | Binder
4.22 | B11
33.2 | B12
47.3 | B13
26.4 | B14
4.55 | B15
33.2 | B16
9.59 | B17
12.9 | B18
3.78 | B19
5.13 | B20
3.59 | B21
4.39 | B22
9.75 | B23
9.16 | B24
40 | B25
27.2 | B26
23.6 | B27
33.3 | B28
34.6 | B29
22.6 | B30
33.6 | B31
3.86 | B32
7.16 | B33
19.1 | B34
37.6 | B35
37.7 | B36
8.18 | B37
40.9 | B38
32.6 | B39
34.6 | B40

Biological target: T2, PD-L1 antigen (ELISA of Example 2)
Assay: ELISA, signal on PD-L1 antigen

ELISA | Binder
0.415 | B11
4 | B12
4 | B13
3.02 | B14
0.469 | B15
3.03 | B16
1.11 | B17
2.23 | B18
0.429 | B19
1.03 | B20
0.568 | B21
0.429 | B22
1.46 | B23
2.11 | B24
3.5 | B25
2.88 | B26
2.11 | B27
4 | B28
3.73 | B29
2.67 | B30
3.8 | B31
0.51 | B32
0.58 | B33
1.76 | B34
3.64 | B35
3.66 | B36
0.844 | B37
3.96 | B38
3.55 | B39
3.77 | B40

Biological target: T1, PD-1 antigen (ELISA of Example 2)
Assay: ELISA, signal on PD-1 antigen over control

A/control | Binder
3.84 | B1
3.59 | B2
21.5 | B3
40.4 | B4
45.1 | B5
4.56 | B6
6.9 | B7
4.2 | B8
5.23 | B9
6.38 | B10
